Data published in the supplement of paper PMC10598134.
± gives the standard deviation.

Assay: collision cross section of modified peptide (TIMS, N2, iRT-aligned); higher = larger / more extended gas-phase ion
Protocol: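 1/K0 was aligned run-wise to spiked iRT peptides and converted to CCS in N2 (Mason-Schamp). Values are the mean of 1-3 technical replicates for the most abundant feature at each charge state.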

[1] = charge state: 2, modification: HexNAc (ST)
[2] = charge state: 2, modification: Malonyl
[3] = charge state: 2, modification: hydroxyisobutyryl
[4] = charge state: 3, modification: hydroxyisobutyryl
[5] = charge state: 2, modification: Citrullination (R)
[6] = charge state: 2, modification: Methyl (K)
[7] = charge state: 3, modification: Methyl (K)
[8] = charge state: 2, modification: Butyryl
[9] = charge state: 3, modification: Dimethyl (K)
[10] = charge state: 2, modification: Glutarylation
[11] = charge state: 3, modification: Glutarylation
[12] = charge state: 2, modification: Crotonyl
[13] = charge state: 2, modification: Formyl
[14] = charge state: 3, modification: Formyl
[15] = charge state: 2, modification: GlyGly (K)
[16] = charge state: 3, modification: GlyGly (K)
[17] = charge state: 2, modification: Nitro (Y)
[18] = charge state: 3, modification: Malonyl
[19] = charge state: 2, modification: Phospho (Y)
[20] = charge state: 2, modification: Acetyl (K)
[21] = charge state: 3, modification: Acetyl (K)
[22] = charge state: 2, modification: Hydroxyproline
[23] = charge state: 2, modification: Dimethyl (K)
[24] = charge state: 3, modification: Hydroxyproline
[25] = charge state: 3, modification: Butyryl
[26] = charge state: 2, modification: Propionyl
[27] = charge state: 2, modification: Succinyl
[28] = charge state: 3, modification: Succinyl

## FGVEAFSDCLR [_FGVEAFS(HexNAc (ST))DCLR_]
[1]
  collision cross section: 398.33 ± 0.63 Å²

## LEEVTGKLQVAR [_LEEVTGK(Malonyl)LQVAR_]
[2]
  collision cross section: 393.19 ± 0.021 Å²

## VDVEVPDVSLEGPEGKLK [_VDVEVPDVSLEGPEGK(hydroxyisobutyryl)LK_]
[3]
  collision cross section: 470.57 ± 1.1 Å²
[4]
  collision cross section: 549.45 ± 27 Å²

## FSAYIKNSNPALNDNLEK [_FSAYIK(hydroxyisobutyryl)NSNPALNDNLEK_]
[3]
  collision cross section: 489.27 ± 0.86 Å²
[4]
  collision cross section: 551.92 ± 1.1 Å²

## AVPSSPAGSAARGR [_AVPSSPAGSAAR(Citrullination (R))GR_]
[5]
  collision cross section: 365.96 ± 0.94 Å²
Charge state: 3, modification: Citrullination (R)
  collision cross section: 481.37 ± 0.56 Å²

## VETTVTSLKTK [_VETTVTSLK(Methyl (K))TK_]
[6]
  collision cross section: 381.5 ± 1.8 Å²
[7]
  collision cross section: 455.24 ± 7.2 Å²

## ITASLCDLKSR [_ITASLCDLK(Butyryl)SR_]
[8]
  collision cross section: 390.25 Å²

## EVVKPVPITSPAVSK [_EVVKPVPIT(HexNAc (ST))SPAVSK_]
[1]
  collision cross section: 445.83 ± 0.56 Å²
Charge state: 3, modification: HexNAc (ST)
  collision cross section: 512.07 ± 2.8 Å²

## VLDSGAPIKIPVGPETLGR [_VLDSGAPIK(Dimethyl (K))IPVGPETLGR_]
[9]
  collision cross section: 506.24 ± 0.56 Å²

## DESFLGKLGGTLAR [_DESFLGK(Gluratylation)LGGTLAR_]
[10]
  collision cross section: 418.47 ± 2.1 Å²
[11]
  collision cross section: 488.45 ± 2.4 Å²

## IQTKAGEATVK [_IQTK(Crotonyl)AGEATVK_]
[12]
  collision cross section: 371.41 ± 0.56 Å²

## LLIVSTTPYSEKDTK [_LLIVSTTPYSEK(Formyl)DTK_]
[13]
  collision cross section: 448.09 ± 0.69 Å²
[14]
  collision cross section: 480.73 ± 1.5 Å²

## AGQKLIDVNHYAK [_AGQK(Formyl)LIDVNHYAK_]
[13]
  collision cross section: 428.61 ± 0.79 Å²
[14]
  collision cross section: 474.19 ± 2.1 Å²

## TFGKAAGPSLSHTSGGTQSK [_TFGK(Methyl (K))AAGPSLSHTSGGTQSK_]
[7]
  collision cross section: 525.9 ± 1.3 Å²

## KYEEIDNAPEER [_K(GlyGly (K))YEEIDNAPEER_]
[15]
  collision cross section: 416.44 ± 0.85 Å²
[16]
  collision cross section: 499.05 ± 3 Å²

## LQEKVESAQSEQK [_LQEK(GlyGly (K))VESAQSEQK_]
[15]
  collision cross section: 427.55 ± 1.4 Å²
[16]
  collision cross section: 508.34 ± 0.87 Å²

## VETFSGVYK [_VETFSGVY(Nitro (Y))K_]
[17]
  collision cross section: 348.3 ± 0.55 Å²

## VFSIISSEKELK [_VFSIISSEK(Crotonyl)ELK_]
[12]
  collision cross section: 412.67 ± 0.34 Å²

## SPSDSGYSYETIGKTTK [_SPSDSGYSYETIGK(Methyl (K))TTK_]
[6]
  collision cross section: 466.86 ± 1.2 Å²
[7]
  collision cross section: 512.24 ± 3.8 Å²

## VDVEVPDVSLEGPEGKLK [_VDVEVPDVSLEGPEGK(Malonyl)LK_]
[2]
  collision cross section: 466.73 ± 0.63 Å²
[18]
  collision cross section: 496.84 Å²

## ITASLCDLKSR [_ITASLCDLK(Malonyl)SR_]
[2]
  collision cross section: 382.56 Å²

## TEVNSGFFYK [_TEVNSGFFY(Phospho (Y))K_]
[19]
  collision cross section: 373.38 ± 0.68 Å²

## ATVASSTQKFQDLGVK [_ATVASSTQK(Acetyl (K))FQDLGVK_]
[20]
  collision cross section: 445.22 ± 2.2 Å²
[21]
  collision cross section: 493.63 ± 0.33 Å²

## DYSSGFGGKYGVQADR [_DYSSGFGGK(Formyl)YGVQADR_]
[13]
  collision cross section: 429.11 ± 0.79 Å²

## GEIGPPGPR [_GEIGPP(Hydroxyproline)GPR_]
[22]
  collision cross section: 319.92 ± 1.1 Å²

## LEEVTGKLQVAR [_LEEVTGK(Acetyl (K))LQVAR_]
[20]
  collision cross section: 391.97 ± 0.61 Å²
[21]
  collision cross section: 467.89 Å²

## VGVEVPDVNIEGPEGKLK [_VGVEVPDVNIEGPEGK(Trimethyl (K))LK_]
Charge state: 2, modification: Trimethyl (K)
  collision cross section: 479.14 ± 17 Å²
Charge state: 3, modification: Trimethyl (K)
  collision cross section: 530.81 ± 6.1 Å²

## AGPNASIISLKSDK [_AGPNASIISLK(Gluratylation)SDK_]
[10]
  collision cross section: 416.83 ± 0.49 Å²

## TEVLSPNSKVESK [_TEVLSPNSK(Formyl)VESK_]
[13]
  collision cross section: 404.6 ± 5.2 Å²
[14]
  collision cross section: 443.86 ± 4.1 Å²

## LEEVTGKLQVAR [_LEEVTGK(Dimethyl (K))LQVAR_]
[23]
  collision cross section: 394.61 ± 0.25 Å²
[9]
  collision cross section: 471.08 ± 2.1 Å²

## GYGVIFANGNR [_GY(Phospho (Y))GVIFANGNR_]
[19]
  collision cross section: 364.42 ± 0.064 Å²

## GERGPPGPPGK [_GERGPPGPP(Hydroxyproline)GK_]
[22]
  collision cross section: 326.03 ± 0.88 Å²
[24]
  collision cross section: 407.49 ± 18 Å²

## YRGDYDR [_YR(Citrullination (R))GDYDR_]
[5]
  collision cross section: 333.6 ± 1.8 Å²

## VSPASSVDSNIPSSQGYKK [_VSPASSVDSNIPSSQGYK(GlyGly (K))K_]
[15]
  collision cross section: 469.54 ± 1.4 Å²
[16]
  collision cross section: 521.06 ± 4.6 Å²

## GETASKLQSEISR [_GETASK(Malonyl)LQSEISR_]
[2]
  collision cross section: 395.19 ± 0.023 Å²

## DTPTSAGPNSFNKGK [_DTPTSAGPNSFNK(Butyryl)GK_]
[8]
  collision cross section: 412.93 ± 0.78 Å²
[25]
  collision cross section: 464.51 ± 3.2 Å²

## LEQVEKELLR [_LEQVEK(Formyl)ELLR_]
[13]
  collision cross section: 382.29 ± 0.41 Å²

## IFDSEEILAGYK [_IFDSEEILAGY(Nitro (Y))K_]
[17]
  collision cross section: 395.88 ± 0.18 Å²

## ILDLKTGTVK [_ILDLK(hydroxyisobutyryl)TGTVK_]
[3]
  collision cross section: 366.99 ± 1.3 Å²

## SLGEPAAGEGSAKR [_SLGEPAAGEGSAK(Methyl (K))R_]
[6]
  collision cross section: 408.5 ± 0.81 Å²
[7]
  collision cross section: 480.43 ± 2.6 Å²

## VPGVGLPGVYPGGVLPGAR [_VPGVGLPGVYPGGVLP(Hydroxyproline)GAR_]
[22]
  collision cross section: 432.24 ± 0.28 Å²
[24]
  collision cross section: 534.68 ± 3 Å²

## YEEIVKEVSTYIK [_YEEIVK(Malonyl)EVSTYIK_]
[2]
  collision cross section: 438.59 ± 1.6 Å²

## KFGVLSDNFK [_K(GlyGly (K))FGVLSDNFK_]
[15]
  collision cross section: 380.5 ± 0.25 Å²
[16]
  collision cross section: 435.06 ± 2 Å²

## GEYFGEK [_GEY(Nitro (Y))FGEK_]
[17]
  collision cross section: 309.86 ± 0.71 Å²

## PASGAGAGAGAGKR [_PASGAGAGAGAGK(Dimethyl (K))R_]
[23]
  collision cross section: 385.92 ± 1.6 Å²
[9]
  collision cross section: 457.59 ± 1.6 Å²

## HELQANCYEEVKDR [_HELQANCYEEVK(Butyryl)DR_]
[8]
  collision cross section: 452.47 ± 0.51 Å²
[25]
  collision cross section: 502.99 ± 3.8 Å²

## VGIDTPDIDIHGPEGKLK [_VGIDTPDIDIHGPEGK(Gluratylation)LK_]
[10]
  collision cross section: 497.76 ± 0.79 Å²
[11]
  collision cross section: 542.69 ± 1.1 Å²

## SEASSEFAKK [_SEASSEFAK(Propionyl)K_]
[26]
  collision cross section: 351.7 ± 3.7 Å²

## FSAYIKNSNPALNDNLEK [_FSAYIK(GlyGly (K))NSNPALNDNLEK_]
[15]
  collision cross section: 506.19 ± 1.5 Å²
[16]
  collision cross section: 530.18 ± 11 Å²

## AAINQKLIETGER [_AAINQK(Methyl (K))LIETGER_]
[6]
  collision cross section: 414.21 ± 2.1 Å²
[7]
  collision cross section: 471.88 ± 4.4 Å²

## TEVLSPNSKVESK [_TEVLSPNSK(Methyl (K))VESK_]
[6]
  collision cross section: 412.51 ± 2.6 Å²
[7]
  collision cross section: 437.62 ± 4.3 Å²

## VGLQVVAVKAPGFGDNR [_VGLQVVAVK(Dimethyl (K))APGFGDNR_]
[23]
  collision cross section: 465.4 ± 1.7 Å²
[9]
  collision cross section: 490.92 ± 1.2 Å²

## INNFSADIKDSK [_INNFSADIK(Succinyl)DSK_]
[27]
  collision cross section: 402.07 ± 0.25 Å²
[28]
  collision cross section: 465.51 Å²

## SRGAIISQYYNR [_SR(Methyl (R))GAIISQYYNR_]
Charge state: 3, modification: Methyl (R)
  collision cross section: 476.32 ± 1.6 Å²

## LEEVTGKLQVAR [_LEEVTGK(Methyl (K))LQVAR_]
[6]
  collision cross section: 393.19 ± 1.7 Å²
[7]
  collision cross section: 474.94 ± 3.5 Å²

## VLDSGAPIKIPVGPETLGR [_VLDSGAPIK(Malonyl)IPVGPETLGR_]
[2]
  collision cross section: 468.64 ± 1.6 Å²
[18]
  collision cross section: 512.64 ± 6.2 Å²

## GEVQVSDKER [_GEVQVSDK(Propionyl)ER_]
[26]
  collision cross section: 360.54 ± 0.33 Å²

## VYIASSSGSTAIKK [_VYIASSSGSTAIK(Succinyl)K_]
[27]
  collision cross section: 413.08 ± 1.1 Å²
[28]
  collision cross section: 508.16 ± 1.6 Å²

## LQAAYAGDKADDIQK [_LQAAYAGDK(Succinyl)ADDIQK_]
[27]
  collision cross section: 436.68 ± 1.4 Å²
[28]
  collision cross section: 489.74 ± 2.1 Å²

## SLKLNTAEDAK [_SLK(Formyl)LNTAEDAK_]
[13]
  collision cross section: 369.44 ± 0.39 Å²

## IINEPTAAAIAYGLDKK [_IINEPTAAAIAYGLDK(Dimethyl (K))K_]
[23]
  collision cross section: 490.46 ± 1.8 Å²
[9]
  collision cross section: 554.13 ± 0.54 Å²

## VGTASVLQPVKK [_VGTASVLQPVK(Acetyl (K))K_]
[20]
  collision cross section: 379.84 ± 0.47 Å²

## GADFLVTEVENGGSLGSKK [_GADFLVTEVENGGSLGSK(Malonyl)K_]
[2]
  collision cross section: 475.75 ± 0.97 Å²

## SGGRGVSVSSAR [_SGGR(Citrullination (R))GVSVSSAR_]
[5]
  collision cross section: 351.18 ± 4.8 Å²

## GSELQNYFTK [_GSELQNY(Nitro (Y))FTK_]
[17]
  collision cross section: 363.07 ± 0.55 Å²

## SSFAYKDQNENR [_SSFAYK(Crotonyl)DQNENR_]
[12]
  collision cross section: 403.46 ± 0.27 Å²
Charge state: 3, modification: Crotonyl
  collision cross section: 461.83 ± 1.6 Å²
